# Biological target: CV3–25 IgG
# Experiment: SPR
# Chain of CV3–25 IgG (VH, as listed by the source, chain 1 of 2): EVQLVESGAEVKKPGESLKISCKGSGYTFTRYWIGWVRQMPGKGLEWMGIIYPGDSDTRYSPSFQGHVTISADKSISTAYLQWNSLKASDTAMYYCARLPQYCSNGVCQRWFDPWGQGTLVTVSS
# Chain of CV3–25 IgG (VL, as listed by the source, chain 2 of 2): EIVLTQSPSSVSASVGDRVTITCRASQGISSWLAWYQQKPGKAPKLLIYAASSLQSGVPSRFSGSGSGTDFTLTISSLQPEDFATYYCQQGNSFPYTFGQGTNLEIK
row,Binder,koff [s⁻¹]
1,DKYFKNHTSPDVDLG [SARS-CoV-2 S2 peptide #289 (1153-DKYFKNHTSPDVDLG-1167)],0.0319
2,DKYFKNHTSPD [shorter version of peptide #289 (1153-DKYFKNHTSPD-1163)],0.0761
